Test results: patent publication US20250277045A1 (KEYMED BIOSCIENCES, published 2025)
Where a chain is given by its changes, count along the chain named.

T1: cynomolgus monkey CD3εγ-Fc heterodimer (cynomolgus monkey)
T1 chain 1: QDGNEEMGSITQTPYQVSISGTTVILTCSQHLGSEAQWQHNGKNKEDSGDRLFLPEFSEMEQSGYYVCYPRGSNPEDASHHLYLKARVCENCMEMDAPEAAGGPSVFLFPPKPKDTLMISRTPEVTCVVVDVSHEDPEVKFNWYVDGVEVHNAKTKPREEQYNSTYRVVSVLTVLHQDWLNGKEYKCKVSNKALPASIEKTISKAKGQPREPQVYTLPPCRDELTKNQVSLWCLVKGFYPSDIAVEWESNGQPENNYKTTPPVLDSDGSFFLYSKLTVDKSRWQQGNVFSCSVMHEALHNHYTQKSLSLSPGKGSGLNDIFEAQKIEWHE
T1 chain 2: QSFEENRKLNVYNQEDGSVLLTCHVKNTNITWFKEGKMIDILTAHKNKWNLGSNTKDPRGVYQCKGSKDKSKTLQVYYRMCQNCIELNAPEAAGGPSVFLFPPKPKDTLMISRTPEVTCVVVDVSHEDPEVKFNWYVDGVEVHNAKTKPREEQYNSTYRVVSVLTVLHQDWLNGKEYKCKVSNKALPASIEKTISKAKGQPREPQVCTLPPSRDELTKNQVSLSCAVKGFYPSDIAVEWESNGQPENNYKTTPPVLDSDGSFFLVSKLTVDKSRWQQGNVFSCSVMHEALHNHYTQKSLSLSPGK

T2: human BCMA recombinant antigen (human, UniProt Q02223 1-53)
T2 construct: range 1-53; also called human BCMA recombinant protein
T2 sequence (looked up): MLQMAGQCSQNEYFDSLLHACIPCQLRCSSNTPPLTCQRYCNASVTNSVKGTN

T3: human BCMA on cells (CHO-hBCMA clone 2C2; NCI-H929; RPMI-8226) (human, UniProt Q02223 1-184)
T3 construct: whole, on cells; also called Human BCMA-CHO; CHO-hBCMA-2C2
T3 sequence (looked up): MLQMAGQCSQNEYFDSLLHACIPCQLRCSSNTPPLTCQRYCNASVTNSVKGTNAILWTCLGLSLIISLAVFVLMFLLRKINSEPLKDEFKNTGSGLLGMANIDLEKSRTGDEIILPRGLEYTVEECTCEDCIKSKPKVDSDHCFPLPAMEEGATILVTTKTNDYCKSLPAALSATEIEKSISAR

B1: BCMA×CD3 κλ005 (bispecific antibody, human IgG4 S228P, kappa, lambda)
light 1: DIVLTQSPASLAVSPGQRATITCRASKSVSTSGYSYMHWYQKKPGQPPKLLIYLASNLESGVPARFSGSGSGTDFTLTINPVEAEDTANYYCQHSRELPWTFGQGTKVEIKRTVAAPSVFIFPPSDEQLKSGTASVVCLLNNFYPREAKVQWKVDNALQSGNSQESVTEQDSKDSTYSLSSTLTLSKADYEKHKVYACEVTHQGLSSPVTKSFNRGEC
heavy 1: QVQLVQSGSELKKPGASVKVSCKASGYIFTNFGMNWVREAPGQGLEWMGWINTYTGEQIYADGFTGRFVFSLDTSVSTAYLQISSLKAEDTAVYFCARGEIYYGYDVGFVYWGQGTLVTVSSASTKGPSVFPLAPCSRSTSESTAALGCLVKDYFPEPVTVSWNSGALTSGVHTFPAVLQSSGLYSLSSVVTVPSSSLGTKTYTCNVDHKPSNTKVDKRVESKYGPPCPPCPAPEFEGGPSVFLFPPKPKDTLMISRTPEVTCVVVDVSQEDPEVQFNWYVDGVEVHNAKTKPREEQFNSTYRVVSVLTVLHQDWLNGKEYKCKVSNKGLASSIEKTISKAKGQPREPQVCTLPPSQEEMTKNQVSLSCAVKGFYPSDIAVEWESNGQPENNYKTTPPVLDSDGSFFLVSKLTVDKSRWQEGNVFSCSVMHEALHNHYTQKSLSLSLGK
light 2: QAVVTQEPSLTVSPGGTVTLTCRSSTGAVTTSNYANWVQEKPGQAPRGLIGGTNKRAPWTPARFSGSLLGGKAALTITGAQAEDEAEYYCVLWYSNLWVFGGGTKLTVLGQPKAAPSVTLFPPSSEELQANKATLVCLISDFYPGAVTVAWKADSSPVKAGVETTTPSKQSNNKYAASSYLSLTPEQWKSHRSYSCQVTHEGSTVEKTVAPTECS
heavy 2: EVQLVESGGGLVQPGGSLRLSCAASGFTFNTYAMNWVRKAPGKGLEWVGRIRSKYNNYATYYADSVKDRFTISRDDSKNSLYLQMNSLKTEDTAVYYCVRHGNFGNSYVSWFAYWGQGTLVTVSSASTKGPSVFPLAPCSRSTSESTAALGCLVKDYFPEPVTVSWNSGALTSGVHTFPAVLQSSGLYSLSSVVTVPSSSLGTKTYTCNVDHKPSNTKVDKRVESKYGPPCPPCPAPEFEGGPSVFLFPPKPKDTLMISRTPEVTCVVVDVSQEDPEVQFNWYVDGVEVHNAKTKPREEQFNSTYRVVSVLTVLHQDWLNGKEYKCKVSNKGLASSIEKTISKAKGQPREPQVYTLPPCQEEMTKNQVSLWCLVKGFYPSDIAVEWESNGQPENNYKTTPPVLDSDGSFFLYSKLTVDKSRWQEGNVFSCSVMHEALHNHYTQKSLSLSLGK
B2: BCMA×CD3 κλ006 (bispecific antibody, human IgG4 S228P, kappa, lambda)
light 1: B1 light 1 with S30T, M37I, N57D, S60A
heavy 1: B1 heavy 1
light 2: B1 light 2
heavy 2: B1 heavy 2

Assays:
[1] = molecular target: T1, cynomolgus monkey CD3εγ-Fc heterodimer; test: SPR (Biacore T200), antigen amine-coupled to CM5, antibody as analyte, 1:1 model
Description: (§1) 10 μg/mL human or cynomolgus monkey BCMA or CD3εγ recombinant antigen was bound to a CM5 chip (GE healthcare) by amino coupling, controlling the amount of antigen bound to approximately 200 RU. After the baseline plateau, gradient-diluted antibodies (from 10 μg/mL, 2-fold dilutions for 7 gradients) flowed through the chip at a flow rate of 30 μL/min for a binding time of 350 seconds and a dissociation time of 600 seconds. Kinetic constants were fitted using Biacore T200 evaluation software with a 1:1 binding model.

[2] = molecular target: T2, human BCMA recombinant antigen; test: as above
Description: as §1

[3] = molecular target: T4, cynomolgus monkey BCMA recombinant antigen (cynomolgus monkey, UniProt A0A2K5UD97 1-51); test: as above
T4 construct: range 1-52
T4 sequence (A0A2K5UD97 entry or part of it): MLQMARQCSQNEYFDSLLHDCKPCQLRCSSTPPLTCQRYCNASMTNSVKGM
Description: as §1

[4] = molecular target: T2, human BCMA recombinant antigen; test: competition ELISA, coated human BCMA, antibody varied, then biotinylated human APRIL at 240 ng/mL, SA-HRP
Description: 1 μg/mL human BCMA recombinant antigen was prepared with pH 9.6 carbonic acid buffer, added to a maxisorp96-well plate, and coated overnight at 4° C. After blocking with 5% skim milk/PBS for 1 h at room temperature, 50 μL antibody per well (4-fold dilution from 30 μg/mL for a total of 10 gradients) was added and incubated for 30 min at room temperature. […] After 3 washes with 0.05% PBST (PBS+0.05% Tween-20) and PBS respectively, 100 μL of SA-HRP (diluted 1:8000) was added to each well and incubated at room temperature for 45 min. Washing 3 times with 0.05% PBST and PBS respectively, 100 μL TMB color-developing solution was added into each well, after 10 min, 50 μL concentrated sulfuric acid was added into each well to stop the reaction, read OD450 nm by a microplate reader, and perform three-parameter fitting curve using Graphpad software.

[5] = molecular target: T5, cynomolgus monkey BCMA on CHO cells (CHO-cynoBCMA clone 1A2) (cynomolgus monkey, UniProt A0A2K5UD97 1-183); test: flow cytometry, CHO-cynomolgus monkey BCMA cells
T5 construct: whole, on cells; also called Cynomolgus monkey BCMA-CHO; CHO-cynoBCMA-1A2
T5 sequence (A0A2K5UD97 entry or part of it): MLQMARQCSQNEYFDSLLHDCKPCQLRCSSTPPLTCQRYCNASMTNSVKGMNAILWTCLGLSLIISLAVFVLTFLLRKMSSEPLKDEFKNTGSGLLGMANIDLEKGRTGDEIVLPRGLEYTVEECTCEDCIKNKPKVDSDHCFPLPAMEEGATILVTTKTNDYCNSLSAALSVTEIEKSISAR
Description: (§2) 50 μL/well Alexa Fluro647 labeled goat anti-human IgG Fc (1:300 dilution) was added to the secondary antibody, incubated on ice for 20 min, 50 μL/well PI solution (1:300) was added after washing once, incubated for 5 min, and flow cytometer was used to perform detection.

[6] = molecular target: T3, human BCMA on cells (CHO-hBCMA clone …); test: flow cytometry, CHO-human BCMA cells
Description: as §2

[7] = molecular target: T6, human CD3 on T cells (Jurkat cells; human peripheral blood CD4+ and CD8+ T cells) (human, UniProt P07766 23-207); test: flow cytometry, peripheral blood CD8+ T cells (PBMC)
T6 construct: whole, on cells; also called CD3ε
T6 sequence (P07766 23-207): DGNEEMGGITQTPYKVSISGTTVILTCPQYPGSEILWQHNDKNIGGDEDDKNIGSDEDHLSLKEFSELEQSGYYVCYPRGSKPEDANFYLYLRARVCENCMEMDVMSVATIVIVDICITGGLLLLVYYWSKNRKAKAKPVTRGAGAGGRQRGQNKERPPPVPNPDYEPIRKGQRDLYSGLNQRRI
Description: (§3) Fresh human or cynomolgus monkey peripheral blood was taken and PBMC was isolated by Ficoll-Paque Plu (GE, 17-1440-03). […] 50 μL/well Alexa Fluro647 labeled goat anti-human IgG Fc (1:300 dilution) was added to the secondary antibody, ice bath for 20 min, 50 μL/well PI was added after washing once, incubated for 5 min, and flow cytometer (BD C6) was used to perform detection.

[8] = molecular target: T3, human BCMA on cells (CHO-hBCMA clone …); test: flow cytometry, RPMI-8226 cells
Description: (§4) The primary antibody was washed off, 50 μL/well Alexa Fluro647 labeled goat anti-human IgG Fc (1:300 dilution) was added, incubated on ice for 20 min, 50 μL/well PI was added after washing once, incubated for 5 min, and flow cytometer was used to perform detection.

[9] = molecular target: T3, human BCMA on cells (CHO-hBCMA clone …); test: flow cytometry, NCI-H929 cells
Description: as §4

[10] = molecular target: T6, human CD3 on T cells (Jurkat cells; …); test: flow cytometry, peripheral blood CD4+ T cells (PBMC)
Description: as §3

[11] = molecular target: T6, human CD3 on T cells (Jurkat cells; …); test: flow cytometry, Jurkat cells
Description: Jurkat cells in the logarithmic growth phase were added with 200 μg/mL murine IgG (Jackson ImmunoResearch, 115-005-03) and incubated on ice for 30 min. […] 50 μL/well Alexa Fluro647 labeled goat anti-human IgG Fc (1:300 dilution) was added to the secondary antibody, incubated on ice for 20 min, 50 μL/well PI was added after washing once, incubated for 5 min, and flow cytometer (BD C6) was used to perform detection.

Binder | Kd [1] | Kd [2] | Kd [3] | IC50 (read off the curve) [4] | EC50 [5] | EC50 [6] | EC50 [7] | EC50 [8] | EC50 [9] | EC50 [10] | EC50 [11]
B1 | 20 nM | 1.1 nM | 0.09 nM | ~3 nM | 3 nM | 24 nM | 60 nM | 38 nM | 33 nM | 66 nM | 51 nM
B2 | 33 nM | 1.2 nM | 0.1 nM | ~2 nM | 3 nM | 16 nM | 93 nM | 19 nM | 32 nM | 91 nM | 56 nM
